Data taken from patent US12492252.

Target: human GPC3 on cells (HepG2 cells expressing full length human GPC3; GPC3-transfected HEK293T cells) (human) (UniProt P51654)
Assay: cell-based or functional assay

**Q.** How did the IFN-gamma cytokine release (pg/mL), E:T 1:1 turn out when GC33 CAR (GC33 Benchmark) was run?
**A.** Its IFN-gamma cytokine release (pg/mL), E:T 1:1 is 8180 pg/mL.

**Q.** And the IFN-gamma cytokine release (pg/mL), E:T 1:3?
**A.** The IFN-gamma cytokine release (pg/mL), E:T 1:3 was 2760 pg/mL.

**Q.** What about the IFN-gamma cytokine release (pg/mL), E:T 3:1 of the same substance?
**A.** Its IFN-gamma cytokine release (pg/mL), E:T 3:1 is 15000 pg/mL.

**Q.** What about the Specific lysis (%) of HepG2 cells, E:T 1:1 of the same substance?
**A.** Its Specific lysis (%) of HepG2 cells, E:T 1:1 is 9.78%.

**Q.** And the Specific lysis (%) of HepG2 cells, E:T 1:3?
**A.** The Specific lysis (%) of HepG2 cells, E:T 1:3 was 4.57%.

**Q.** And the Specific lysis (%) of HepG2 cells, E:T 3:1?
**A.** The Specific lysis (%) of HepG2 cells, E:T 3:1 was 17.2%.
